Assay results from patent US20150064179A1 (BIOTEST, published 2015).
Values belong to the binder of their own block, whether it stands above or below them.

Key:
[1] = target: T1, human interleukin 10 (R&D Systems, Cat. No. 217-IL/CF) (human, UniProt P22301 19-178); test: antigen ELISA on plate-coated hIL-10 (2 µg/ml), COS-7 supernatants adjusted to the same antibody concentration; one concentration, not given
T1 construct: also called hIL-10; human IL-10
From the text: In brief, the expression vectors coding for the light chain and for the heavy chain were transiently cotransfected into COS-7 cells by calcium phosphate precipitation in DMEM containing 10% FCS in a 24-well format. After transfection the medium was replaced by the serum free medium CHO-S-SFM II (Invitrogen, Germany) and the supernatants of the COS-7 cells were collected 2-3 days after transfection. The antibody titer of the humanized antibodies secreted into the supernatants of transfected COS-7 cells were analyzed by a sandwich ELISA. Based on the determined antibody concentrations supernatants of all samples were adjusted to the same antibody concentrations, and all samples were used to analyze binding to human IL-10 in an antigen ELISA, whereby Maxisorb plates (Nunc, Germany) were coated with 2 μg/ml hIL-10 in PBS.

[2] = target: T1, human interleukin 10 (R&D Systems, Cat. …); test: SPR Biacore 2000, hIL-10 immobilised on CM-5 chip
Protocol: (§1) Surface plasmon resonance analysis was used to measure the association and dissociation rate constants for binding of the different antibodies (murine, chimeric, 3 humanized variants) towards hIL-10 using BIACORE 2000 (Biacore AB, Uppsala, Sweden). hIL-10 was immobilized on a CM-5 sensor chip according to manufacturers conditions. hIL-10 was immobilized by adding a 50 μl aliquot of 20 μg/ml at a flow rate of 5 μl/minute resulting in an immobilization density of 320RU. The immobilized hIL-10 surface was regenerated in a two step cycle by using 0.1M carbonate buffer pH 9.2 and 0.01M HCL/1M NaCl at flow rates of 50 μl/minute for one minute each. Each antibody sample was analyzed at least 4 times in antibody concentration ranges of 20-0.15 μg/ml. Calculations from the sensograms were performed by using the BIA evaluation version 3 (1999) software.
However, slight differences are detectable. […] Slight differences in association and dissociation rates are also detectable.

[3] = target: T1, human interleukin 10 (R&D Systems, Cat. …); test: SPR Biacore 2000, hIL-10 immobilised on CM-5 chip, antibody as analyte, n=4
Protocol: as §1

[4] = target: T1, human interleukin 10 (R&D Systems, Cat. …); test: SPR Biacore 2000, hIL-10 immobilised on CM-5 chip, antibody as analyte, n=6
Protocol: as §1

[5] = target: T2, recombinant Cynomolgus IL-10 (Cynomolgus, UniProt P79338 19-178); test: SPR Biacore T100, BT-063 immobilised by amine coupling, rCIL-10 as analyte, assay no 3
T2 construct: also called rCIL-10
Protocol: (§2) The affinity of the BT-63 variant 3 (hVH26/hVL7) to Cynomolgus IL-10 was analysed by additional surface plasmon resonance experiments using a Biacore T100 (Biacore AB, Uppsala, Sweden).
(§3) BT-063 was diluted in 10 mM acetate pH5.5 to 5 μg/mL and immobilized using amine coupling procedure to obtain a final level of about 1000 RU. Regeneration of the sensor chip surface was obtained injecting 10 mM Glycine-HCl pH 1.8 for 30 s. Samples were injected in different concentrations over the flow cell as well as over the reference cell. Signals obtained by the reference cell were subtracted from the signals obtained by the detector flow cell and resulting binding profiles were evaluated using a 1:1 Langmuir-binding model.

[6] = target: T1, human interleukin 10 (R&D Systems, Cat. …); test: SPR Biacore T100, BT-063 immobilised by amine coupling, rhIL-10 as analyte, assay no 1
[7] = target: T2, recombinant Cynomolgus IL-10; test: SPR Biacore T100, BT-063 immobilised by amine coupling, rCIL-10 as analyte, assay no 1
Protocol: as §2, §3

[8] = target: T1, human interleukin 10 (R&D Systems, Cat. …); test: SPR Biacore 2000, hIL-10 immobilised on CM-5 chip, antibody as analyte, n=5
Protocol: as §1

[9] = target: T2, recombinant Cynomolgus IL-10; test: SPR Biacore T100, BT-063 immobilised by amine coupling, IL-10 as analyte, 1:1 Langmuir model, average
Protocol: as §2, §3

[10] = target: T2, recombinant Cynomolgus IL-10; test: SPR Biacore T100, BT-063 immobilised by amine coupling, rCIL-10 as analyte, assay no 2
Protocol: as §2, §3

T2 sequence (P79338 19-178 limits assumed): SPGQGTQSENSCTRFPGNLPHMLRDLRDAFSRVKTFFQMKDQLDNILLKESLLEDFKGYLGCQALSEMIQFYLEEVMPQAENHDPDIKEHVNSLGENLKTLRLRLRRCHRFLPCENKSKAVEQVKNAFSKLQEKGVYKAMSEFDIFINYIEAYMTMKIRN
T1 sequence (P22301 19-178): as the sequence (P79338 19-178 limits assumed) above, with R14H, H21N, I46L, H83Q, E89A, S129N, V136I counted along it

binding result [1]: binds
B1: humanized antibody variant hVH13/hVL8 (antibody, V domains shown)
VH: EVQLVESGGGLVQPGGSLRLSCAASGFTFSTYGVHWVRQAPGKGLEWVSVIWRGGSTDYSAAFMSRFTISRDNSKNTVYFQMNSLRAEDTAVYYCARQAYGHYMDYWGQGTLVTVSS
VL: DVLMTQSPLSLPVTLGQPASISCRSSQNIVHSNGNTYLEWFQQRPGQSPRLLIYKVSNRFSGVPDRFSGSGSGTDFTLKISRVEAEDVGVYYCFQGSHVPWTFGGGTKVEIK
notes: human constant kappa and gamma-1; tested as COS-7 supernatant

binding result [1]: binds
B2: humanized antibody variant hVH18/hVL7 (antibody, V domains shown)
VH: EVQLVESGGGLVQPGGSLRLSCAASGFSFATYGVHWVRQSPGKGLEWLGVIWRGGSTDYSAAFMSRLTISKDNSKNTLYLQMNSLRAEDTAVYYCARQAYGHYMDYWGQGTLVTVSS
VL: DVVMTQSPLSLPVTLGQPASISCRSSQNIVHSNGNTYLEWYLQRPGQSPRLLIYKVSNRFSGVPDRFSGSGSGTDFTLKISRVEAEDVGVYYCFQGSHVPWTFGQGTKVEIK
notes: as for B1

binding result [1]: binds
B3: humanized antibody variant hVH13/hVL7 (antibody, V domains shown)
VH: EVQLVESGGGLVQPGGSLRLSCAASGFTFSTYGVHWVRQAPGKGLEWVSVIWRGGSTDYSAAFMSRFTISRDNSKNTVYFQMNSLRAEDTAVYYCARQAYGHYMDYWGQGTLVTVSS
VL: DVVMTQSPLSLPVTLGQPASISCRSSQNIVHSNGNTYLEWYLQRPGQSPRLLIYKVSNRFSGVPDRFSGSGSGTDFTLKISRVEAEDVGVYYCFQGSHVPWTFGQGTKVEIK
notes: as for B1

binding result [1]: binds
B4: humanized antibody variant hVH28/hVL8 (antibody, V domains shown)
VH: EVQLVESGGGLVQPGGSLRLSCAASGFSFATYGVHWVRQSPGKGLEWLGVIWRGGSTDYSAAFMSRLTISKDNSKNTVYFQMNSLRAEDTAVYYCARQAYGHYMDYWGQGTSVTVSS
VL: DVLMTQSPLSLPVTLGQPASISCRSSQNIVHSNGNTYLEWFQQRPGQSPRLLIYKVSNRFSGVPDRFSGSGSGTDFTLKISRVEAEDVGVYYCFQGSHVPWTFGGGTKVEIK
notes: as for B1

binding result [1]: binds
B5: humanized antibody variant hVH1/hVL8 (antibody, V domains shown)
VH: EVQLVESGGGLVQPGGSLRLSCAASGFTFSTYGVHWVRQAPGKGLEWVSVIWRGGSTDYSAAFMSRFTISRDNSKNTLYLQMNSLRAEDTAVYYCARQAYGHYMDYWGQGTLVTVSS
VL: DVLMTQSPLSLPVTLGQPASISCRSSQNIVHSNGNTYLEWFQQRPGQSPRLLIYKVSNRFSGVPDRFSGSGSGTDFTLKISRVEAEDVGVYYCFQGSHVPWTFGGGTKVEIK
notes: as for B1

binding result [1]: binds
B6: humanized antibody variant hVH9/hVL7 (antibody, V domains shown)
VH: EVQLVESGGGLVQPGGSLRLSCAASGFTFSTYGVHWVRQAPGKGLEWVSVIWRGGSTDYSAAFMSRFTISRDNSKNTLYLQMNSLRAEDTAVYFCAKQAYGHYMDYWGQGTLVTVSS
VL: DVVMTQSPLSLPVTLGQPASISCRSSQNIVHSNGNTYLEWYLQRPGQSPRLLIYKVSNRFSGVPDRFSGSGSGTDFTLKISRVEAEDVGVYYCFQGSHVPWTFGQGTKVEIK
notes: as for B1

factor of reduced affinity compared to the murine B-N10 [2]: ~3 fold | Kd [3]: 2.81 nM | koff [3]: 0.00164 s⁻¹ | kon [3]: 1.21e+06 M⁻¹ s⁻¹
B7: BT-063-2 (hVH20/hVL8) (antibody, V domains shown)
VH: EVQLVESGGGLVQPGGSLRLSCAASGFSFATYGVHWVRQSPGKGLEWLGVIWRGGSTDYSAAFMSRLTISKDNSKNTVYFQMNSLRAEDTAVYFCAKQAYGHYMDYWGQGTSVTVSS
VL: DVLMTQSPLSLPVTLGQPASISCRSSQNIVHSNGNTYLEWFQQRPGQSPRLLIYKVSNRFSGVPDRFSGSGSGTDFTLKISRVEAEDVGVYYCFQGSHVPWTFGGGTKVEIK
notes: also called BT-063 variant hVH20/hVL8

Kd [4]: 1.22 nM | koff [4]: 0.00103 s⁻¹ | kon [4]: 1.21e+06 M⁻¹ s⁻¹
B8: BT-063-1 (hVH20/hVL7) (antibody, V domains shown)
VH: EVQLVESGGGLVQPGGSLRLSCAASGFSFATYGVHWVRQSPGKGLEWLGVIWRGGSTDYSAAFMSRLTISKDNSKNTVYFQMNSLRAEDTAVYFCAKQAYGHYMDYWGQGTSVTVSS
VL: DVVMTQSPLSLPVTLGQPASISCRSSQNIVHSNGNTYLEWYLQRPGQSPRLLIYKVSNRFSGVPDRFSGSGSGTDFTLKISRVEAEDVGVYYCFQGSHVPWTFGQGTKVEIK
notes: also called BT-063 variant hVH20/hVL7

binding result [1]: binds
B9: humanized antibody variant hVH1/hVL7 (antibody, V domains shown)
VH: EVQLVESGGGLVQPGGSLRLSCAASGFTFSTYGVHWVRQAPGKGLEWVSVIWRGGSTDYSAAFMSRFTISRDNSKNTLYLQMNSLRAEDTAVYYCARQAYGHYMDYWGQGTLVTVSS
VL: DVVMTQSPLSLPVTLGQPASISCRSSQNIVHSNGNTYLEWYLQRPGQSPRLLIYKVSNRFSGVPDRFSGSGSGTDFTLKISRVEAEDVGVYYCFQGSHVPWTFGQGTKVEIK
notes: as for B1

binding result [1]: binds
B10: humanized antibody variant hVH28/hVL7 (antibody, V domains shown)
VH: EVQLVESGGGLVQPGGSLRLSCAASGFSFATYGVHWVRQSPGKGLEWLGVIWRGGSTDYSAAFMSRLTISKDNSKNTVYFQMNSLRAEDTAVYYCARQAYGHYMDYWGQGTSVTVSS
VL: DVVMTQSPLSLPVTLGQPASISCRSSQNIVHSNGNTYLEWYLQRPGQSPRLLIYKVSNRFSGVPDRFSGSGSGTDFTLKISRVEAEDVGVYYCFQGSHVPWTFGQGTKVEIK
notes: as for B1

Kd [5]: 0.191 nM | koff [5]: 0.018 s⁻¹ | kon [5]: 9.7e+07 M⁻¹ s⁻¹ | factor of reduced affinity compared to the murine B-N10 [2]: ~3 fold | Kd [6]: 4.6 nM | koff [6]: 0.003 s⁻¹ | kon [6]: 600000 M⁻¹ s⁻¹ | Kd [7]: 0.196 nM | koff [7]: 0.012 s⁻¹ | kon [7]: 6.2e+07 M⁻¹ s⁻¹ | Kd [8]: 2.91 nM | koff [8]: 0.00266 s⁻¹ | kon [8]: 1.07e+06 M⁻¹ s⁻¹ | Kd [9]: 0.194 nM | Kd [10]: 0.195 nM | koff [10]: 0.017 s⁻¹ | kon [10]: 8.6e+07 M⁻¹ s⁻¹
B11: BT-063-3 (hVH26/hVL7) (antibody, V domains shown)
VH: EVQLVESGGGLVQPGGSLRLSCAASGFSFATYGVHWVRQSPGKGLEWLGVIWRGGSTDYSAAFMSRLTISKDNSKNTVYLQMNSLRAEDTAVYFCAKQAYGHYMDYWGQGTSVTVSS
VL: DVVMTQSPLSLPVTLGQPASISCRSSQNIVHSNGNTYLEWYLQRPGQSPRLLIYKVSNRFSGVPDRFSGSGSGTDFTLKISRVEAEDVGVYYCFQGSHVPWTFGQGTKVEIK
notes: also called BT-63 variant 3; BT-063 (variant hVH26/hVL7)

binding result [1]: binds
B12: humanized antibody variant hVH26/hVL8 (antibody, V domains shown)
VH: EVQLVESGGGLVQPGGSLRLSCAASGFSFATYGVHWVRQSPGKGLEWLGVIWRGGSTDYSAAFMSRLTISKDNSKNTVYLQMNSLRAEDTAVYFCAKQAYGHYMDYWGQGTSVTVSS
VL: DVLMTQSPLSLPVTLGQPASISCRSSQNIVHSNGNTYLEWFQQRPGQSPRLLIYKVSNRFSGVPDRFSGSGSGTDFTLKISRVEAEDVGVYYCFQGSHVPWTFGGGTKVEIK
notes: as for B1

binding result [1]: binds
B13: humanized antibody variant hVH18/hVL8 (antibody, V domains shown)
VH: EVQLVESGGGLVQPGGSLRLSCAASGFSFATYGVHWVRQSPGKGLEWLGVIWRGGSTDYSAAFMSRLTISKDNSKNTLYLQMNSLRAEDTAVYYCARQAYGHYMDYWGQGTLVTVSS
VL: DVLMTQSPLSLPVTLGQPASISCRSSQNIVHSNGNTYLEWFQQRPGQSPRLLIYKVSNRFSGVPDRFSGSGSGTDFTLKISRVEAEDVGVYYCFQGSHVPWTFGGGTKVEIK
notes: as for B1
